According to article PMC3913039:

Molecular target: recombinant 3x-FLAG-tagged human Sec61α, wild type (human) (UniProt P61619)
Assay: co-IP; Sf21 microsomes with FLAG-Sec61α and Sec61γ solubilised with 1% Deoxy BigChap, anti-FLAG immunoprecipitation, immunoblot beside canine microsomes

Chain of UniProt P61619 (P61619 whole entry): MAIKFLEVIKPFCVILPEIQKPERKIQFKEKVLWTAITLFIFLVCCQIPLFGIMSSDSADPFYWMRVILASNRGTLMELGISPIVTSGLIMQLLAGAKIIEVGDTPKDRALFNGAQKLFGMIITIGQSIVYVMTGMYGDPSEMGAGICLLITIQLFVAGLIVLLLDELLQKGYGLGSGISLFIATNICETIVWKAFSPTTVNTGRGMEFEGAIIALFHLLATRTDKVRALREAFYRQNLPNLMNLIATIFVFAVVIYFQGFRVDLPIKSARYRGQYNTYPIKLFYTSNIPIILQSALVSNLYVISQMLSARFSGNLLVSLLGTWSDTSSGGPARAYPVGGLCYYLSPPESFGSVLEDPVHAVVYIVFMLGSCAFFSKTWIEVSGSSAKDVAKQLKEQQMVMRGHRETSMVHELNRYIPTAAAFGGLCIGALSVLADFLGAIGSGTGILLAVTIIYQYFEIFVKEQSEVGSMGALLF

recombinant untagged human Sec61γ (from UniProt P60059 1-68) (natural protein; other documents disagree on this pair)
stoichiometry N: 1
